Experimental data from patent US20210238229A1, “PEPTIDE FOR DISEASE TREATMENT” (UNIVERSITY COLLEGE CORK - NATIONAL UNIVERSITY OF IRELAND, …, priority 2018, published 2021).
Each block holds one compound with its values, some of them ahead of it. Where no end group is shown, it is not given here.

Tests used:
[1] = Peptide degradation in mouse kidney membranes; type: in vitro ADME; details: after 15 minutes, compared to Ang-(1-7) and Ang II
Procedure: Peptides (10^−4M) were incubated with 45 μg of murine kidney membrane preparations and diluted with 50 mM Tris-HCl buffer pH 7.4 laced with 0.1% BSA to minimise adhesion of the peptide onto the tube walls. Incubations proceeded for the desired time, after which the reaction was stopped by addition of half volume of 350 mM HClO4. Samples were then centrifuged to remove any particulates prior to LCMS analysis.
Ang-(1-6) degradation in mouse kidney membranes over 30 minutes compared to Ang-(1-7) and Ang II. (FIG. 4A)

AT2 receptor [2] = target: T1, AT2 receptor (Homo sapiens, UniProt P50052); assay: cAMP in AT2-transfected HEK293 cells; type: cell-based; details: for intracellular cAMP production: AT2-transfected HEK293, 15 min stimulation
T1 construct: expressed in transfected cells; host or cells: HEK-293, transient transfection with PolyFect
T1 sequence (P50052 1-363): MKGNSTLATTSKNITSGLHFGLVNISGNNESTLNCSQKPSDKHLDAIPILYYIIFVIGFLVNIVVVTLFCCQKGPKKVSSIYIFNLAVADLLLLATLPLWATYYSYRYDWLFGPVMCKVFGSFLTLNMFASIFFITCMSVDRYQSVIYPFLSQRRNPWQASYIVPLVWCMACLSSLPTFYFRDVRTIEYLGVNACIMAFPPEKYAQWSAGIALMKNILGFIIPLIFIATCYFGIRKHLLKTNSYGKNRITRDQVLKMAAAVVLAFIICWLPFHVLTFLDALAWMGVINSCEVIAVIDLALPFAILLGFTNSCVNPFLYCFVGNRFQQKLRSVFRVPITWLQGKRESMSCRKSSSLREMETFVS
Procedure: Human embryonic kidney (HEK-293) cells were cultured in DMEM medium supplemented with FBS (10%), HEPES buffer (1%), sodium pyruvate (1%), and L-glutamine (1%) and maintained under standard conditions (5% CO2, 95% humidity and 37° C.). Cells were cultured in 100 mm cell culture dishes and seeded in 48-well plates at a density of 75,000 cells per well. The next day, HEK-293 cells were transfected using a transient transfection procedure following the manufacturer's instructions. Briefly, 150 ng of control plasmid pcDNA3.1 or a combination of 50 ng of pcDNA3.1 and 100 ng of expression vectors containing the cDNA for Mas, MrgD, AT1 or AT2, were mixed with serum-free medium and PolyFect transfection reagent. After 10 min incubation at room temperature, which allowed the complex formation, complete medium was added and the total volume was transferred into appropriate wells of the 48-well plate. The cells were incubated for 16-20 hrs. The next day, the medium was replaced by serum-free medium 1 hr before stimulation. After stimulation with A779, D-Pro, PD123319, forskolin (all 10^−6 M), or PTX (50 ng/ml), or SQ22536 (2×10^−6M) for 15 min, the solvent, Ang-(1-6) or C21 (all in the mentioned concentrations) were added for 15 min. Then, the cells were lysed by adding 180 μl/well of 0.1M hydrochloric acid with 0.1% Triton X-100, and the lysates were stored at −80° C. until cAMP measurement. The protein concentration was determined using Pierce BCA Protein Assay Kit according to the manufacturer's protocol (Thermo Fisher Scientific, Waltham, Mass., USA).
(§1) cAMP concentration in cell lysates was determined using Direct cAMP ELISA kit (Enzo Life Sciences Ltd., Exeter, United Kingdom). Briefly, wells of 96-well plate (Goat Anti-Rabbit IgG pre-coated) were neutralized with 50 μl of Neutralizing Reagent. Next, 100 μl of acetylated cAMP standard or cell lysate was added, followed by 50 μl of blue cAMP-Alkaline Phosphatase Conjugate and 50 μl of yellow EIA Rabbit Anti-cAMP antibody. The plate was then incubated on a shaker (˜400 rpm) at room temperature for 2 h. Next, the wells were aspirated and rinsed three times with Wash Buffer (1:10, Tris buffered saline containing detergents and sodium azide in deionized water). After the final wash, the plate was tapped against clean paper towel to remove any remaining Wash Buffer. To each well, 200 μl p-Nitrophenyl Phosphate Substrate Solution was added, and the plate was incubated for 1 h at room temperature. The enzymatic reaction was stopped by adding 50 μl of Stop Solution, and the absorbance at 405 nm was measured immediately. The cAMP concentration was determined from non-linear standard curve using GraphPad Prism 6.0 software.
The results are illustrated by FIG. 1A.
pcDNA-transfected HEK293 cells and AT2-transfected HEK293 cells were stimulated for 15 min with a range of concentrations (10^−16 to 10^−6 M) of Ang-(1-6). The results are illustrated by FIGS. 1B and 1C.
AT2-transfected HEK293 cells were stimulated for 15 min with a range of concentrations (10^−13 to 10^−6 M) of C21, Ang (1-4) and Ang (1-7) PBS and the concentration of cAMP was measured in accordance with the methodology provided. The results are illustrated by FIGS. 6 and 7.
AT2-transfected HEK293 cells were stimulated for 15 min with C21, Ang-(1-6) and a range of concentrations (10^−14 to 10^−7 M) of Ala^1-Ser^4-Ang-(1-6), and the concentration of cAMP was measured in accordance with the methodology provided.
AT2-transfected HEK293 cells were stimulated for 15 min with Ang-(1-6) and a range of concentrations (10^−15 to 10^−7 M) of Ser^4-Ang-(1-6) and the concentration of cAMP was measured in accordance with the methodology provided.

[3] = test system: Human kidney cancer A498 cells; assay: Colony formation assay; type: cell-based; details: daily treatment for 5 days
Procedure: Human kidney cancer A498 cells were seeded at 300 cells/well in a 6-well plate. The next day, cells were treated with various peptides daily. Each condition was run in triplicate. After 5 days of treatment, cells were washed once with PBS after media removal, stained with 0.5% crystal violet in 30% ethanol and 3% formaldehyde for 10 min at RT and washed with distilled water. Colonies were counted under the microscope.
Human renal cancer cells were treated with Ang-(1-6) or analogues and the effect on colony formation counted. Such cells are used for in vivo experiments in rodents when implanted subcutaneously or into the kidney to generate a rapidly forming and growing tumour, being leathal if untreated.

HUVEC = assay: cAMP in primary human umbilical vein endothelial cells; type: cell-based; details: 15 min stimulation
Procedure: Primary human umbilical vein endothelial cells (HUVEC) were purchased from PromoCell (Heidelberg, Germany). HUVEC were cultured in 100 mm cell culture dishes and were seeded at 75,000 per well in 24-well plates at passage 5-7, for stimulation. Stimulation with Ang-(1-6) or C21 and the blockers was carried out as described above.
as §1, with “To each well, 200 μl p-Nitrophenyl Phosphate Substrate Solution was added, and the plate was incubated for 1 h at room temperature.” left out, “software. […]” for “software.”

AT2 receptor [4] = target: T1, AT2 receptor; assay: Block of Ang-(1-6) mediated cAMP signal in AT2-transfected HEK293 cells; type: cell-based; details: Ang-(1-6) 10^−10 M, increasing antagonist concentrations
Procedure: Human embryonic kidney (HEK-293) cells were cultured in DMEM medium supplemented with FBS (10%), HEPES buffer (1%), sodium pyruvate (1%), and L-glutamine (1%) and maintained under standard conditions (5% CO2, 95% humidity and 37° C.). Cells were cultured in 100 mm cell culture dishes and seeded in 48-well plates at a density of 75,000 cells per well. The next day, HEK-293 cells were transfected using a transient transfection procedure following the manufacturer's instructions. […] The protein concentration was determined using Pierce BCA Protein Assay Kit according to the manufacturer's protocol (Thermo Fisher Scientific, Waltham, Mass., USA).
cAMP concentration in cell lysates was determined using Direct cAMP ELISA kit (Enzo Life Sciences Ltd., Exeter, United Kingdom). […] The enzymatic reaction was stopped by adding 50 μl of Stop Solution, and the absorbance at 405 nm was measured immediately. The cAMP concentration was determined from non-linear standard curve using GraphPad Prism 6.0 software.
Cells were stimulated for 15 min with (a) 10^−11 M and 10^−1° M Ang-(1-6), (b) Ala^1-Ang-(1-6) (10^−10 M) or (c) a range of concentrations (10^−12M to 10^−8M) of Ala^1-Ang (1-6) together with Ang-(1-6) at a concentration of 10^−10M. The concentration of cAMP was measured in accordance with the methodology provided.

- peptide degradation [1]: rapid
Compound: DRVYIH [Ang (1-6), DRVYIH]

- concentration at Emax (cAMP) (AT2 receptor [2]; AT2-transfected HEK293): 10^−11 M
- intracellular cAMP production (AT2 receptor [2]): increases intracellular cAMP production
- increase in intracellular cAMP production compared with Ang (1-6) (AT2 receptor [2]; same concentration (10^−11M)): greater increase
Compound: ARVSIH [Ala^1-Ser^4-Ang-(1-6), variant of Ang-(1-6) with Ala at position 1 and Ser at position 4]

- AT2 stimulation relative to Ang (1-6) (AT2 receptor [2]; AT2-transfected HEK293, 10^−15 to 10^−7 M): comparable to Ang (1-6)
- intracellular cAMP production (AT2 receptor [2]): increases intracellular cAMP production
Compound: DRVSIH [Ser^4-Ang-(1-6), variant of Ang-(1-6) with Ser at position 4]

Compound: RVSIH [Ser^4-Ang (2-6), fragment peptide 2-6 with Ser substitution]
- number of colonies versus solvent (PBS) [3]: significant reduction of colonies

- intracellular cAMP production (AT2 receptor [2]): do not increase intracellular cAMP
Compound: DRVY (Angiotensin-2; UniProt P01019 25-28, looked up, fragment) [Ang (1-4), angiotensin fragment 1-4, reference compound]

- intracellular cAMP production (AT2 receptor [2]): do not increase intracellular cAMP
Compound: DRVYIHP [Ang (1-7), reference compound]

Compound: CCCCOC(=O)NS(=O)(=O)c1sc(CC(C)C)cc1-c1ccc(Cn2ccnc2)cc1 [C21]
- cAMP stimulation in primary endothelial cells (HUVEC) (HUVEC): can stimulate such cells

Compound: RVYIH [Ang (2-6), truncated version of Ang (1-6)]
- number of colonies versus solvent (PBS) [3]: significant reduction of colonies

- block of cAMP-generating capacity of Ang-(1-6) (AT2 receptor [4]): completely blocked
- intracellular cAMP production (AT2 receptor [2]): no effect
Compound: ARVYIH [Ala^1-Ang-(1-6), variant of Ang-(1-6) with Ala at position 1, AT2 antagonist]
